Laboratory results as given in patent US20220143148A1, “COMPOSITIONS AND METHODS FOR MODULATING CGRP SIGNALING TO REGULATE INTESTINAL INNATE LYMPHOID CELLS” (The Broad Institute, Inc., priority 2019, published 2022).

Test system: small intestinal immune cells
Test: Droplet-based scRNA-seq of small intestinal immune cells (LP and PP), OVA vs PBS, clustering and differential expression
Assay type: in vivo, mouse
Source text: To comprehensively characterize small intestinal immune cells, Applicants generated scRNA-Seq profiles for 58,067 immune cells collected from lamina propria (LP) and Peyer's patch (PP) regions at steady state and after induction of a type 2 inflammatory reaction to ovalbumin (OVA) (Brandt et al., 2003) (FIGS. 1A and 8A). To ensure sufficient representation of rare cells, Applicants combined a normalization strategy—removing by flow sorting either a portion of IgD+ naïve B cells, which are the most abundant cell type in PPs, or all CD19+ and CD3+ T cells (FIG. 8B, Methods)—with profiling of a sufficiently large number of cells number (P>0.99 to recover at least 15 cells from each cluster, Methods) by massively parallel scRNA-seq (Haber et al., 2017) (Methods). Applicants obtained 36,797 and 21,270 high quality cells passing initial filtering (Methods) from PP and LP regions, respectively.
Overall, Applicants annotated 27 cell subsets across the two compartments, spanning T cells, B cells, ILCs, dendritic cells (DCs), myeloid cells and stromal cells, in frequencies ranging from 0.07% to 14%. Briefly, Applicants first partitioned the cells from the PP regions by unsupervised clustering (Methods) into 46 clusters, retained the 97% of cells that were robustly assigned cell identities in each cluster (Methods), assigned the cells from the LP regions to the 46 clusters using a classifier (Methods), and visualized the data with scvis (Ding et al., 2018), a deep generative model-based method (FIGS. 1B and 8C, Methods). Next, Applicants identified genes that were differentially expressed between the cells in each cluster and the remaining cells (Table 1, Methods), as well as between pairs of clusters (Table 2), to elucidate identities of similar cell types/states. Applicants excluded from downstream analysis clusters mostly consisting of contaminants from epithelium, likely doublets, or cells with a small number of Unique Molecular Identifiers (UMIs) (FIGS. 1C and 8D), or lacking distinct markers (Methods). Altogether, Applicants retained 27 clusters spanning 85% of the cells and each associated with distinct marker genes (FIG. 8E, Methods).
To induce allergic reaction to OVA, 6 to 7 weeks old mice were sensitized twice, two weeks apart, with 50 μg of OVA plus 1 mg of aluminum potassium sulfate adjuvant via intraperitoneal injection. Two weeks later, mice were orally administered with 50 mg of OVA on every other day for a total of five times. 1 μg of α-CGRP peptide was administered simultaneously when indicated. Mice were deprived of food for 3-4 hours in cages with wood chip bedding for limiting antigen degradation in the stomach before each intragastric challenge.
Isolation of cells from Peyer's patches (PPs). Peyer's patches (PPs) were carefully dissected from the small intestine under a stereo microscope using a fine scissor, pierced once with a fine forcep. Tissues were digested in freshly made digestion buffer (RPMI-1640 containing 100 μg/ml Liberase™ and 50 μg/ml DNase I at 37° C. on a roto-mixer. After 15 min, tissues were very gently mixed using a 1 ml pipette. The supernatant was collected and added to ice-cold MACS buffer (pH 7.4; PBS plus 2% FCS and 2 mM EDTA). Pre-warmed (37° C.) fresh digestion buffer was added to the remaining tissues. After rotation at 37° C. for 15 min, the mixture was vigorously mixed using a 1 ml pipette for 1 min. Supernatants from the two steps were combined and passed through 70 μm filters and stained for FACS (below).
Isolation of cells from the lamina propria (LP). The small intestines were opened longitudinally and washed in ice-cold PBS. For scRNA-seq, roughly 0.5 cm of fragments from each of the distal, middle and proximal regions without visible PPs were collected. Epithelial cells were dissociated by tissue rotation in pre-warmed (37° C.) PBS containing 10 mM EDTA at 37° C. for 15 min, followed by additional incubation on ice for 15 min. Tissues were then shaken vigorously. […]

B1: OVA (protein, UniProt P01012 2-386, looked up)
Ovalbumin: GSIGAASMEFCFDVFKELKVHHANENIFYCPIAIMSALAMVYLGAKDSTRTQINKVVRFDKLPGFGDSIEAQCGTSVNVHSSLRDILNQITKPNDVYSFSLASRLYAEERYPILPEYLQCVKELYRGGLEPINFQTAADQARELINSWVESQTNGIIRNVLQPSSVDSQTAMVLVNAIVFKGLWEKAFKDEDTQAMPFRVTEQESKPVQMMYQIGLFRVASMASEKMKILELPFASGTMSMLVLLPDEVSGLEQLESIINFEKLTEWTSSNVMEERKIKVYLPRMKMEEKYNLTSVLMAMGITDVFSSSANLSGISSAESLKISQAVHAAHAEINEAGREVVGSAEAGVDAASVSEEFRADHPFLFCIKHIATNAVLFFGRCVSP
- D16Ertd472e: LN (average fold change) (cluster ID 4, PP, OVA vs PBS): −0.412
- Dnaja1: LN (average fold change) (cluster ID 4, PP, OVA vs PBS): −0.300
- Dnajb9: LN (average fold change) (cluster ID 4, PP, OVA vs PBS): −0.322
- Egln3: LN (average fold change) (cluster ID 4, PP, OVA vs PBS): −0.350
- Fam46a: LN (average fold change) (cluster ID 4, PP, OVA vs PBS): −0.500
- Fibp: LN (average fold change) (cluster ID 4, PP, OVA vs PBS): −0.268
- Furin: LN (average fold change) (cluster ID 4, PP, OVA vs PBS): −0.203
- Gatad1: LN (average fold change) (cluster ID 4, PP, OVA vs PBS): −0.316
- Gcnt2: LN (average fold change) (cluster ID 4, PP, OVA vs PBS): −0.352
- Gimap3: LN (average fold change) (cluster ID 4, PP, OVA vs PBS): 0.275
- Git2: LN (average fold change) (cluster ID 4, PP, OVA vs PBS): 0.350
- Gnb1: LN (average fold change) (cluster ID 4, PP, OVA vs PBS): −0.255
- H2-T23: LN (average fold change) (cluster ID 4, PP, OVA vs PBS): −0.260
- Herpud1: LN (average fold change) (cluster ID 4, PP, OVA vs PBS): −0.214
- Icos: LN (average fold change) (cluster ID 4, PP, OVA vs PBS): −0.291
- Il2ra: LN (average fold change) (cluster ID 4, PP, OVA vs PBS): 0.378
- Il18r1: LN (average fold change) (cluster ID 4, PP, OVA vs PBS): 0.193
- Irf2: LN (average fold change) (cluster ID 4, PP, OVA vs PBS): 0.312
- Irs2: LN (average fold change) (cluster ID 4, PP, OVA vs PBS): −0.372
- Itgav: LN (average fold change) (cluster ID 4, PP, OVA vs PBS): −0.394
- Klf13: LN (average fold change) (cluster ID 4, PP, OVA vs PBS): −0.255
- Klrk1: LN (average fold change) (cluster ID 4, PP, OVA vs PBS): −0.613
- Leng9: LN (average fold change) (cluster ID 4, PP, OVA vs PBS): −0.375
- Map3k14: LN (average fold change) (cluster ID 4, PP, OVA vs PBS): −0.515
- Mast4: LN (average fold change) (cluster ID 4, PP, OVA vs PBS): −0.207
- Mbnl2: LN (average fold change) (cluster ID 4, PP, OVA vs PBS): −0.436
- Minos1: LN (average fold change) (cluster ID 4, PP, OVA vs PBS): 0.218
- Morf4l2: LN (average fold change) (cluster ID 4, PP, OVA vs PBS): −0.252
- Neat1: LN (average fold change) (cluster ID 4, PP, OVA vs PBS): 0.447
- Nedd8: LN (average fold change) (cluster ID 4, PP, OVA vs PBS): 0.234
- Plekhg1: LN (average fold change) (cluster ID 4, PP, OVA vs PBS): −0.229
- Ppp1r16b: LN (average fold change) (cluster ID 4, PP, OVA vs PBS): −0.157
- Ppp2ca: LN (average fold change) (cluster ID 4, PP, OVA vs PBS): −0.432
- Ptger2: LN (average fold change) (cluster ID 4, PP, OVA vs PBS): 0.347
- Ptpn7: LN (average fold change) (cluster ID 4, PP, OVA vs PBS): 0.323
- Raf1: LN (average fold change) (cluster ID 4, PP, OVA vs PBS): 0.457
- Ramp3: LN (average fold change) (cluster ID 4, PP, OVA vs PBS): −0.380
- Rassf5: LN (average fold change) (cluster ID 4, PP, OVA vs PBS): 0.506
- Rcn2: LN (average fold change) (cluster ID 4, PP, OVA vs PBS): −0.225
- Rel: LN (average fold change) (cluster ID 4, PP, OVA vs PBS): −0.354
- Rgs1: LN (average fold change) (cluster ID 4, PP, OVA vs PBS): −0.221
- Rgs3: LN (average fold change) (cluster ID 4, PP, OVA vs PBS): 0.447
- Rnf19b: LN (average fold change) (cluster ID 4, PP, OVA vs PBS): −0.242
- Rpa3: LN (average fold change) (cluster ID 4, PP, OVA vs PBS): 0.541
- S100a6: LN (average fold change) (cluster ID 4, PP, OVA vs PBS): 0.370
- S100a10: LN (average fold change) (cluster ID 4, PP, OVA vs PBS): 0.215
- Saraf: LN (average fold change) (cluster ID 4, PP, OVA vs PBS): −0.187
- Sat1: LN (average fold change) (cluster ID 4, PP, OVA vs PBS): 0.222
- Scn1b: LN (average fold change) (cluster ID 4, PP, OVA vs PBS): −0.273
- Sec11a: LN (average fold change) (cluster ID 4, PP, OVA vs PBS): 0.283
- Serpina3g: LN (average fold change) (cluster ID 4, PP, OVA vs PBS): 0.347
- Serpinb6b: LN (average fold change) (cluster ID 4, PP, OVA vs PBS): −0.432
- Ssna1: LN (average fold change) (cluster ID 4, PP, OVA vs PBS): 0.346
- Taf7: LN (average fold change) (cluster ID 4, PP, OVA vs PBS): −0.409
- Taf10: LN (average fold change) (cluster ID 4, PP, OVA vs PBS): −0.422
- Tagap: LN (average fold change) (cluster ID 4, PP, OVA vs PBS): 0.423
- Tcrg-C1: LN (average fold change) (cluster ID 4, PP, OVA vs PBS): 0.484
- Tgoln1: LN (average fold change) (cluster ID 4, PP, OVA vs PBS): −0.209
- Timm13: LN (average fold change) (cluster ID 4, PP, OVA vs PBS): 0.230
- Tnf: LN (average fold change) (cluster ID 4, PP, OVA vs PBS): 0.465
- Trim8: LN (average fold change) (cluster ID 4, PP, OVA vs PBS): 0.530
- Trps1: LN (average fold change) (cluster ID 4, PP, OVA vs PBS): −0.444
- Tsc22d3: LN (average fold change) (cluster ID 4, PP, OVA vs PBS): 0.359
- Tspan32: LN (average fold change) (cluster ID 4, PP, OVA vs PBS): 0.324
- Ttc19: LN (average fold change) (cluster ID 4, PP, OVA vs PBS): −0.499
- Tuba4a: LN (average fold change) (cluster ID 4, PP, OVA vs PBS): −0.342
- Tubb4b: LN (average fold change) (cluster ID 4, PP, OVA vs PBS): −0.252
- Txk: LN (average fold change) (cluster ID 4, PP, OVA vs PBS): −0.188
- Vegfa: LN (average fold change) (cluster ID 4, PP, OVA vs PBS): −0.252
- VgIl4: LN (average fold change) (cluster ID 4, PP, OVA vs PBS): −0.302
- Zc3hav1: LN (average fold change) (cluster ID 4, PP, OVA vs PBS): −0.303
- Zfand5: LN (average fold change) (cluster ID 4, PP, OVA vs PBS): −0.245
- 1810037l17Rik: percentage of expressing cells in OVA-treated group (cluster ID 5, PP): 0.446
- Bcl2: percentage of expressing cells in OVA-treated group (cluster ID 5, PP): 0.863
